# From patent publication US20120263652A1 (UNIVERSITY OF MARYLAND COLLEGE PARK, published 2012)
# B1: B8 peptide (phage display-derived 7-mer) (peptide)
# peptide: GSLLSAA
# notes: Tested as a phage clone and as a synthetic peptide; The assay field says which; also called B8 clone
# B2: A1 peptide (phage display-derived 7-mer) (peptide)
# peptide: YPASYQR
# notes: Tested as a phage clone (5 copies of the peptide on the capsid; coat protein fusion not described) and as a peptide synthesized in vitro; The assay field says which; also called A1 clone; clone A1 phages
# B3: 2γ3 peptide (peptide)
# peptide: NNQKIVNIKEKVAQIEA
# notes: Derivative of γ3, tested absorbed on polystyrene or PLGA carriers; also called 2γ3 carriers; 2γ3/ASM carriers
# B4: 3γ3 peptide (peptide)
# peptide: NNQKLVNIKEKVAQIEA
# notes: Derivative of γ3, tested absorbed on polystyrene carriers; also called 3γ3 carriers; 3γ3/ASM carriers
# B5: B9 peptide (phage display-derived 7-mer) (peptide)
# peptide: FSPHSRT
# notes: Tested as a phage clone and as a synthetic peptide; The assay field says which; also called B9 clone
# B6: γ3 peptide (17 amino acid peptide derived from the γ chain of fibrinogen) (peptide)
# peptide: NNQKIVNLKEKVAQLEA
# notes: Synthetic peptide; Tested mostly absorbed on 100 nm FITC polystyrene carriers, in some assays together with recombinant acid sphingomyelinase (ASM); also called γ3 carriers; γ3/ASM carriers
# Assays:
# [1] = target: human ICAM-1 (native, expressed on human cells: HUVEC, Caco-2) (human) (UniProt P05362); assay: competition: free non-specific IgG against FITC anti-ICAM carriers on Caco-2 cells; fluorescence microscopy
# [2] = target: human ICAM-1 (native, expressed on human cells: HUVEC, Caco-2) (human) (UniProt P05362); assay: FITC IgG polystyrene carriers on fixed TNF-α-activated Caco-2 cells; fluorescence microscopy
# [3] = target: T1, human ICAM-1 (native, expressed on human cells: HUVEC, Caco-2) (human, UniProt P05362 28-532); assay: competition: synthetic peptide against FITC anti-ICAM polystyrene nanocarriers on human endothelial cells; fluorescence microscopy
# T1 construct: whole, on cells; also called intercellular adhesion molecule 1; native human ICAM-1
# Source text: (A) ELISA measurement of the binding of 7-mer peptide expressing phage library to immobilized recombinant ICAM-1 (consisting of the two most membrane-distal Ig domains −1 and 2- of mouse ICAM-1 fused to human Fc or hFc), versus their binding to control hFc. (B) Relative specificity and (C) relative affinity of ICAM-1-targeting peptide phages, determined by ELISA from the experiment in (A). (D) Relative binding of phages expressing 7-mer peptides to native ICAM-1 expressed on the surface of HV5 mouse endothelial cells, either control or activated with TNFalpha to mimic a disease phenotype. Binding was determined by microscopy using a fluorescently-labeled antibody to the phage capsid. The line in the graph indicates the level of binding of A1 phage to 293 cells, which are voided of ICAM-1-expression. […] (G) Binding of FITC-labeled anti-ICAM polystyrene nanocarriers to human endothelial cells was evaluated by fluorescence microscopy after incubation with cells in the absence (100% level) or presence of anti-ICAM antibody, ICAM-1-targeting synthetic peptides, or peptides with their scramble sequence (e.g., A1 sc).
# [4] = target: T2, mouse ICAM-1 chimera: the two most membrane-distal Ig domains (1 and 2) of mouse ICAM-1 fused to human Fc (mouse; human, UniProt P13597 28-214, limits assumed); assay: phage ELISA, binding to mouse ICAM-1/hFc relative to control hFc
# T2 construct: domain: the two most membrane-distal Ig domains -1 and 2-; also called mouse ICAM-1/Fc; mouse ICAM-1/hFc; not shown: human Fc (hFc)
# Source text: (§1) Example 5 details development of the 7-mer phage-display derived peptides against ICAM-1. These were identified and isolated from a random library by using a chimeric ICAM-1 protein consisting of the two most membrane-distal Ig domains of mouse ICAM-1 fused to human Fc (hFc). One round of negative selection against hFc, followed by three rounds of positive selection against mouse ICAM-1/hFc, rendered six phage clones (A1, B7, B8, B9, B10, and D6), which recognized immobilized mouse ICAM-1 (FIG. 5A).
# (§2) (A) ELISA measurement of the binding of 7-mer peptide expressing phage library to immobilized recombinant ICAM-1 (consisting of the two most membrane-distal Ig domains −1 and 2- of mouse ICAM-1 fused to human Fc or hFc), versus their binding to control hFc. (B) Relative specificity and (C) relative affinity of ICAM-1-targeting peptide phages, determined by ELISA from the experiment in (A). (D) Relative binding of phages expressing 7-mer peptides to native ICAM-1 expressed on the surface of HV5 mouse endothelial cells, either control or activated with TNFalpha to mimic a disease phenotype. Binding was determined by microscopy using a fluorescently-labeled antibody to the phage capsid.
# [5] = target: T2, mouse ICAM-1 chimera: the two most …; assay: phage ELISA on immobilized mouse ICAM-1/hFc, relative to non-selected phages
# Source text: as §1, §2
# [6] = target: T1, human ICAM-1 (native, expressed on …); assay: 100 nm FITC polystyrene carriers coated with peptide on endothelial cells; fluorescence microscopy
# [7] = target: mouse ICAM-1 (native, expressed on mouse endothelial cells) (mouse) (UniProt P13597); assay: phage binding to H5V mouse endothelial cells; microscopy with fluorescent antibody to the phage capsid
# [8] = target: T2, mouse ICAM-1 chimera: the two most …; assay: phage ELISA on immobilized mouse ICAM-1/hFc
# Source text: as §1, §2
# [9] = target: T2, mouse ICAM-1 chimera: the two most …; assay: γ3 absorbed on 100 nm FITC polystyrene particles; nitrocellulose-immobilized ICAM-1/Fc vs albumin; fluorescence microscopy
# Experimental: (A) The peptide γ3 was absorbed on the surface of 100 nm FITC-labeled polystyrene carriers and the resulting products were incubated for 15 min on nitrocellulose-immobilized albumin vs human or mouse ICAM-1 chimeras containing ICAM-1-Ig domains 1 and 2 fused to human Fc sequence. The membranes were washed and analyzed by fluorescence microscopy to quantify the number of carriers bound per area. Data are expressed relative to non-specific binding of γ3 carriers to albumin controls (dotted line). A comparison to binding of anti-ICAM carriers is provided (dashed line). (B) Binding of FITC-labeled polystyrene carriers coated by absorption with the peptide γ3 and recombinant acid sphingomyelinase (ASM, a therapeutic enzyme) to activated HUVEC (bars) vs ICAM-1-negative 293 cells (dotted line) was quantified by fluorescence microscopy after 1 h incubation at 37° C., in the absence or presence of excess γ3, anti-ICAM, γ3 scramble peptide, or mannose 6 phosphate (M6P). […] (C) HUVEC lysosomes were labeled for 2 h with Texas-red dextran at 37° C. […] Co-localization of FITC carriers with Texas-red dextran-lysosomes was quantified by fluorescence microscopy. […] Co-localization of FITC 2γ3 carriers with Texas red dextran-labeled lysosomes was assessed by microscopy 3 h post-internalization. […]
# T1 sequence (P05362 28-532): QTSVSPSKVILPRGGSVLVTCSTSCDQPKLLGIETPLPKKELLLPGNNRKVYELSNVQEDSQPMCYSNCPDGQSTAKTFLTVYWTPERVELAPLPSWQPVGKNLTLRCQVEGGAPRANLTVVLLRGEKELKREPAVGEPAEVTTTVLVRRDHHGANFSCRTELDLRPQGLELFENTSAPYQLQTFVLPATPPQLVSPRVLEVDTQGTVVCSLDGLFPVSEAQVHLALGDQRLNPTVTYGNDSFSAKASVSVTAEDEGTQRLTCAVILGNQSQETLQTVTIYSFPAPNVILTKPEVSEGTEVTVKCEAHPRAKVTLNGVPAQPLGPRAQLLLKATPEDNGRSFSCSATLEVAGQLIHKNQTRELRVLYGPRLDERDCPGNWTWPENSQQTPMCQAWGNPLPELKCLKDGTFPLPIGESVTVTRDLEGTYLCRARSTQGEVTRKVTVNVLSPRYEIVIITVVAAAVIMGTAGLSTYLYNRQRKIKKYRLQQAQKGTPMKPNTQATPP
# T2 sequence (P13597 28-214 limits assumed, stated change not applied): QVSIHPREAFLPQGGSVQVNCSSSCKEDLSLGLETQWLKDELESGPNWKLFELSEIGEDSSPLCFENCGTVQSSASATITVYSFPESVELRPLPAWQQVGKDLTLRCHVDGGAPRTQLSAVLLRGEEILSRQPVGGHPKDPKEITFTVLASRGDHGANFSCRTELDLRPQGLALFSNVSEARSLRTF
# human ICAM-1 (native, expressed on human cells: HUVEC, Caco-2) (human), sequence (P05362 28-532): as the sequence (P05362 28-532) above
molecule,measurement,setting,value
non-specific IgG (control) (antibody),"carrier binding, % of the control value with no competitor",[1],102 % of control
same,carriers/cell (carriers/cell),[2],1.3
B1,binding result,[3],binds
B2,specificity vs hFc,[4],~5.1 fold
same,"affinity, fold over non-selected phages",[5],~4.7 fold
B3,binding result,[6],binds
B4,binding result,[6],binds
GCKLCAQ [D6 peptide (phage display-derived 7-mer)],"affinity, % of A1",[7],92.9 % of A1
B5,"affinity, % of A1",[7],72.3 % of A1
same,binding result,[8],binds
B6,binding result,[9],binds
